Experiments:
BSA (control) (bovine) [1] = target: BSA (control) (bovine) (UniProt P02769); experiment: ELISA, BSA control wells, sFlt at 1800 ng/mL, detected with RD-1 + RD-2 anti-sFlt
BSA (control) (bovine) [2] = target: BSA (control) (bovine) (UniProt P02769); experiment: ELISA, BSA control wells, sFlt at 200 ng/mL, detected with RD-1 + RD-2 anti-sFlt
BSA (control) (bovine) [3] = target: BSA (control) (bovine) (UniProt P02769); experiment: ELISA, BSA control wells, sFlt at 600 ng/mL, detected with RD-1 + RD-2 anti-sFlt
BSA (control) (bovine) [4] = target: BSA (control) (bovine) (UniProt P02769); experiment: ELISA, BSA control wells, sFlt at 200 ng/mL, detected with RD-1 + RD-2 anti-sFlt; remark: listed apart in the source
BSA (control) (bovine) [5] = target: BSA (control) (bovine) (UniProt P02769); experiment: ELISA, BSA control wells, sFlt at 600 ng/mL, detected with RD-1 + RD-2 anti-sFlt; remark: listed apart in the source
BSA (control) (bovine) [6] = target: BSA (control) (bovine) (UniProt P02769); experiment: ELISA, BSA control wells, sFlt at 66.67 ng/mL, detected with RD-1 + RD-2 anti-sFlt
BSA (control) (bovine) [7] = target: BSA (control) (bovine) (UniProt P02769); experiment: as above; remark: listed apart in the source

Sequence of BSA (control) (bovine) (P02769 25-607 limits assumed): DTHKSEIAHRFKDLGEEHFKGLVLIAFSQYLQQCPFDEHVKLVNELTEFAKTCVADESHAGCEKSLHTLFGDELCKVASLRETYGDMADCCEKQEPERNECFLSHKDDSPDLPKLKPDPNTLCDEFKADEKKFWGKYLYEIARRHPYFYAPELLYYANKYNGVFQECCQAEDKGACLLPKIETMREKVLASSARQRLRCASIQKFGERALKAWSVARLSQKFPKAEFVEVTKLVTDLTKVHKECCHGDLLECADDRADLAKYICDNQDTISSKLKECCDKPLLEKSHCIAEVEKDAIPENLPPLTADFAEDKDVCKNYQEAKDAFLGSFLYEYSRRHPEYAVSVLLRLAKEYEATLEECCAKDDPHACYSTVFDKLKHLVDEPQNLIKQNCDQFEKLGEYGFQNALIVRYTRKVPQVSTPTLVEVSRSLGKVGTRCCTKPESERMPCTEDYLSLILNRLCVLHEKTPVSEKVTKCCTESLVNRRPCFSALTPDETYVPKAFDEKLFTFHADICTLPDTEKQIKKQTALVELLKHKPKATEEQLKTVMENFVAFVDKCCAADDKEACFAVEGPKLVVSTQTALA
Sequence of Full length sFlt (soluble fms-like tyrosine kinase 1, sFlt-1), Scios Inc. Lot# 9225-89 (from UniProt P17948 27-656) (receptor) (P17948 other isoform, or with tags, fused parts or gaps limits assumed): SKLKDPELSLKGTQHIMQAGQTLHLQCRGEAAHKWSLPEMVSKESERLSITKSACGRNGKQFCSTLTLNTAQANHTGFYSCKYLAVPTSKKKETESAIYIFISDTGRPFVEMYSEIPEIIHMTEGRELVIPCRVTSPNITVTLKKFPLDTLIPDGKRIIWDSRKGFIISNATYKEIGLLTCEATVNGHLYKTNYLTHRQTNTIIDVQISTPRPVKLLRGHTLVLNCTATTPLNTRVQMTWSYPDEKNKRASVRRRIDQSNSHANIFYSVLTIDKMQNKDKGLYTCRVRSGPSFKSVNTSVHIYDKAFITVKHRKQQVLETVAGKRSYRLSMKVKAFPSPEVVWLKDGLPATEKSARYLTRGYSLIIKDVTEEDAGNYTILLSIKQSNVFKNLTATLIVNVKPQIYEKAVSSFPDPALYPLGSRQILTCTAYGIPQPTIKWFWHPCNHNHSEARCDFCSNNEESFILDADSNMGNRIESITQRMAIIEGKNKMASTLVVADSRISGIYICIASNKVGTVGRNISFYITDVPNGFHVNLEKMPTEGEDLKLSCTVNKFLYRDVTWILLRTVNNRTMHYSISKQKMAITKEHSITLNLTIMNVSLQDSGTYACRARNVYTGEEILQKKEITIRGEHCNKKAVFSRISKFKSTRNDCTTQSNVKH
Sequence of Full length sFlt (soluble fms-like tyrosine kinase 1, sFlt-1), Scios Inc. Lot# 9225-89 (from UniProt P17948 27-656) (P17948 other isoform, or with tags, fused parts or gaps limits assumed): as above

OD at 492 nm (BSA (control) (bovine) [1]) [OD] | OD at 492 nm (BSA (control) (bovine) [2]) [OD] | OD at 492 nm (BSA (control) (bovine) [3]) [OD] | OD at 492 nm (BSA (control) (bovine) [4]) [OD] | OD at 492 nm (BSA (control) (bovine) [5]) [OD] | OD at 492 nm (BSA (control) (bovine) [6]) [OD] | OD at 492 nm (BSA (control) (bovine) [7]) [OD] | Substance
0.004 |  |  |  |  |  |  | Full length sFlt (soluble fms-like tyrosine kinase 1, sFlt-1), Scios Inc. Lot# 9225-89 (from UniProt P17948 27-656)
0.009 | 0.01 | 0.006 | 0.005 | 0.008 | 0.02 | 0.003 | Full length sFlt (soluble fms-like tyrosine kinase 1, sFlt-1), Scios Inc. Lot# 9225-89 (from UniProt P17948 27-656) (receptor)

Reference: patent publication US20090176264A1
